Key:
[1] = molecular target: bovine serum albumin (BSA) (bovine, UniProt P02769 25-607); assay: antigen solid phase ELISA: coated BSA, anti-mouse IgG2A-HRP, A450
Experimental: The obtained avian-mouse chimeric antibody in Example 1 and the obtained humanized antibodies (Humanized-1 and Humanized-2) and avian-human chimeric antibody in Example 2 were measured for antigenic specificity by antigen solid phase ELISA with PBS buffer. The obtained avian-mouse chimeric antibody in Example 1, which was labeled with biotin, was also measured for antigenic specificity. CL18M (+) avian-mouse chimeric antibody, which served as a negative control, was also measured for antigenic specificity. Particular measurement conditions were as follows.
Firstly, 2.5 μg/mL of antigen (mouse and human Sema 3A protein) was dispensed into a 384 Well MaxiSorp Plate (Nunc) and reacted overnight at 4° C. in order to coat the plate with the antigen. Otherwise, ovalbumin (OVA) and bovine serum albumin (BSA) were immobilized in the plate as negative controls in similar manner in order to examine specificity of antibodies. After reaction, the plate was washed three times with 50 μL/well of washing solution (PBS containing 0.05% Tween 20), to which was added 25 μL/well of blocking solution (PBS buffer containing 1% bovine serum albumin), and the mixture was reacted for 30 minutes. […] The absorbance was measured at 450 nm using Infinite M1000 (Tecan Trading AG).

ovalbumin (OVA) = molecular target: T1, ovalbumin (OVA) (UniProt P01012 2-386); assay: antigen solid phase ELISA: coated ovalbumin (negative control), anti-mouse IgG2A-HRP, OD450
T1 sequence (looked up): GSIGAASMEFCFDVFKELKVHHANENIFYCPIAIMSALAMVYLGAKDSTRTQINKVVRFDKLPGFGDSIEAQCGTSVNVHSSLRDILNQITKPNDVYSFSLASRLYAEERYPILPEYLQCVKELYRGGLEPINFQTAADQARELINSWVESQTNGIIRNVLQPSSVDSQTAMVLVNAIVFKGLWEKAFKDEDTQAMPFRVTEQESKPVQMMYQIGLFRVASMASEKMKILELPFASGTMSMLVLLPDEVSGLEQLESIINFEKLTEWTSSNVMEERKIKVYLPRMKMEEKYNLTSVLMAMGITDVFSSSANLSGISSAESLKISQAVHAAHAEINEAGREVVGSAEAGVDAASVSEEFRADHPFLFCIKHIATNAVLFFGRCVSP
Experimental: The antigen specificity of the purified antibody was measured by ELISA with PBS buffer. 2.5 μg/mL of antigen was dispensed to a 96 well Maxi Sorp Plate (Nunc) and reacted overnight at 4° C. to coat the plate with an antigen (mouse Sema 3A protein). Ovalbumin, rabbit IgG and skim milk were immobilized in the plate as negative controls in similar manner in order to examine specificity of antibodies. The next day, the plate was washed three times with 200 μL/well of washing solution (PBS containing 0.05% Tween 20), to which was added 200 μL/well of blocking solution (PBS containing 0.5% skim milk) and the mixture was reacted for 30 minutes. The plate was washed three times with 200 μL/well of washing solution, to which was added 100 μL of culture supernatant containing antibody and the mixture was reacted for one hour. The plate was washed five times with 200 μL/well of washing solution, to which was added 100 μL/well of diluent in which anti-mouse IgG2A goat antibody labeled with horseradish peroxidase (HRP) (Bethyl Laboratories, Inc.) was diluted 2000 times with PBS buffer and the mixture was reacted for one hour. […] The absorbance was measured at 450 nm using μQuantBiomolecular Spectrometer (Bio Tek Instruments, Inc.) Results are shown in FIG. 2.

Chain of bovine serum albumin (BSA) (P02769 25-607 limits assumed): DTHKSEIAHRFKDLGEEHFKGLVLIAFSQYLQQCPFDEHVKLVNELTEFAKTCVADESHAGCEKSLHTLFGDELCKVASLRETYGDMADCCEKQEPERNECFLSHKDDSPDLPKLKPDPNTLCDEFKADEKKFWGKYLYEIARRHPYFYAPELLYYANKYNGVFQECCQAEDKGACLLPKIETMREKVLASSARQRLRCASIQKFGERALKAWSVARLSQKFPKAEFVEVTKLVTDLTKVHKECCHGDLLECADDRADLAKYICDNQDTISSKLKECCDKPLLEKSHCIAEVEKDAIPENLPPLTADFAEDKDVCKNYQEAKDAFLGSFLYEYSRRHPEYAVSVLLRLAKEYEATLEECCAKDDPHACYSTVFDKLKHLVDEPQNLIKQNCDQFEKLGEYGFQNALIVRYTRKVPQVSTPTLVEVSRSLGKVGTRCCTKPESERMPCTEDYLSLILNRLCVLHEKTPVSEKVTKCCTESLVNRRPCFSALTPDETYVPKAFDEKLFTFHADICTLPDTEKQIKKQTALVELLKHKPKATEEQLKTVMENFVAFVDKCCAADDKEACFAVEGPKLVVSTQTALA

binding result [1]: no binding (tested: about 2 µg/mL) | binding result (ovalbumin (OVA)): no binding (tested: 100 ng/µL)
B1: Anti-Sema 3A avian-mouse chimeric antibody (clone No. 4-2-derived) (antibody, mouse IgG2a)
heavy: AVTLDESGGGLQTPGGALSLVCKASGFTFSSYPMGWVRQAPGKGLEWVAGIDDDGDSDTRYAPAVKGRATISRDNGQSTVRLQLNNLRAEDTGTYYCAKHTGIGANSAGSIDAWGHGTEVIVSSAKTTAPSVYPLAPVCGDTTGSSVTLGCLVKGYFPEPVTLTWNSGSLSSGVHTFPAVLQSDLYTLSSSVTVTSSTWPSQSITCNVAHPASSTKVDKKIEPRGPTIKPCPPCKCPAPNLLGGPSVFIFPPKIKDVLMISLSPIVTCVVVDVSEDDPDVQISWFVNNVEVHTAQTQTHREDYNSTLRVVSALPIQHQDWMSGKEFKCKVNNKDLPAPIERTISKPKGSVRAPQVYVLPPPEEEMTKKQVTLTCMVTDFMPEDIYVEWTNNGKTELNYKNTEPVLDSDGSYFMYSKLRVEKKNWVERNSYSCSVVHEGLHNHHTTKSFSRTPGK
light: ALTQPASVSANLGGTVKITCSGGGSYTGSYYYGWYQQKSPGSALVTMIYYNNKRPSDIPSRFSGSLSGSTNTLTITGVRADDEAVYFCGSADNSGDAFGAGTTLTVLGQPKSSPSVTLFPPSSEELETNKATLVCTITDFYPGVVTVDWKVDGTPVTQGMETTQPSKQSNNKYMASSYLTLTARAWERHSSYSCQVTHEGHTVEKSLSRADCS
notes: Avian variable regions of clone No. 4-2 with mouse IgG2a heavy and mouse lambda light constant regions; also called anti-Sema 3A avian-mouse chimeric antibody (IgG)

Reference: patent publication US20150368327A1 (YOKOHAMA CITY UNIVERSITY, published 2015)
